Assay [1] has as its target human cellular prion protein (human). The experiment in a line: cell-based or functional assay.
The target of assay [2] is GST-PrPc (β1α1) protein (human). The assay can be described thus: Biacore (SPR), ratio of affinities.
The target is the same in assay [3]. The assay can be described thus: Biacore (SPR), soluble GST-PrPc (β1α1) at several concentrations.

B1: anti-PrPc mAb-5 (monoclonal antibody Ab-5) (antibody, V domains shown)
VH: EVQLQQSGPELVKPGASVKMSCKASGYTFTDYYMKWVKQSHGKSLEWIGDINPNNGDTFYNQKFKGKATLTVDKSSNTAYMQLNSLTSEDSAVYYCAKPGRTYWGQGTLVTVSAAKTTAPSVYPLAPVCGGSRP
VL: DIVLTQSPASLAVSLGQRATISYRASKSVSTSGYSYMHWNQQKPGQPPRLLIYLVSNLESGVPARFSGSGSGTDFTLNIHPVEEEDAATYYCQHIRELTRSEGGPSWK
With B1, in assay [1], the Migrated cell number, HCT116 cells (transwell, antibody 10 µg/mL, 24 h) is 192 cells; the Migrated cell number, MDA-MB-231 cells (transwell, antibody 10 µg/mL, 24 h) came out at 695 cells; the Migrated cell number, SW480 cells (transwell, antibody 10 µg/mL, 24 h) was 111 cells. Moreover, in assay [2], the fold affinity against 12F10 was 5.38 times and the fold affinity against Ab-3 came out at 1.87 times. In addition, in assay [3], the Kd worked out at 3.05 nM.

(Values after US20170066817A1.)
